Assays:
Rsp3690 = target: T1, Rsp3690 (Cereibacter sphaeroides, UniProt Q3IVY4); experiment: 4-nitrophenol release at […] nm; conditions: pH 8.3, 30 °C, 400 μM MnCl2, Mn enzyme
T1 sequence (Q3IVY4 1-354): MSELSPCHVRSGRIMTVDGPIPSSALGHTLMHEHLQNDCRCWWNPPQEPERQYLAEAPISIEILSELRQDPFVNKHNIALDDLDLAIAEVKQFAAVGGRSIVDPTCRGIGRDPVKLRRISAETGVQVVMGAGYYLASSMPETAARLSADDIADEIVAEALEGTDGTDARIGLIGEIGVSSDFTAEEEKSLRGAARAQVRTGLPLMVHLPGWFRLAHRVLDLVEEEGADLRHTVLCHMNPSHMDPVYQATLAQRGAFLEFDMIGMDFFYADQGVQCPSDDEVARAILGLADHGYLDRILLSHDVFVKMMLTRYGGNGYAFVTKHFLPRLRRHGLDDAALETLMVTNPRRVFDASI

purified protein [1] = substrate: CC(=O)Oc1cccnc1; experiment: purified protein; assay type: biochemical, Cereibacter sphaeroides; conditions: pH 8.3, 30 °C, 400 μM MnCl2, Mn enzyme
purified protein [2] = substrate: CC(=O)Oc1ccc2ccccc2c1; experiment: purified protein; assay type: biochemical, Cereibacter sphaeroides; conditions: pH 8.3, 30 °C, 400 μM MnCl2, Mn enzyme
purified protein [3] = substrate: CC(=O)Nc1ccc(Cl)cc1; experiment: purified protein; assay type: biochemical, Cereibacter sphaeroides; conditions: pH 8.3, 30 °C, 400 μM MnCl2, Mn enzyme
purified protein [4] = substrate: CC(=O)Oc1cccc2ccccc12; experiment: purified protein; assay type: biochemical, Cereibacter sphaeroides; conditions: pH 8.3, 30 °C, 400 μM MnCl2, Mn enzyme
purified protein [5] = substrate: CCCC(=O)Oc1ccc2c(C)cc(=O)oc2c1; experiment: purified protein; assay type: biochemical, Cereibacter sphaeroides; conditions: pH 8.3, 30 °C, 400 μM MnCl2, Mn enzyme
purified protein [6] = substrate: CC(=O)Oc1c[nH]c2ccccc12; experiment: purified protein; assay type: biochemical, Cereibacter sphaeroides; conditions: 50 mM Hepes pH 8.3, 1% ethanol, 30 °C, 400 μM MnCl2, Mn enzyme
purified protein [7] = substrate: CCCC(=O)Oc1cccc2ccccc12; experiment: purified protein; assay type: biochemical, Cereibacter sphaeroides; conditions: pH 8.3, 30 °C, 400 μM MnCl2, Mn enzyme
purified protein [8] = substrate: CC(=O)Oc1ccccc1; experiment: purified protein; assay type: biochemical, Cereibacter sphaeroides; conditions: pH 8.3, 30 °C, 400 μM MnCl2, Mn enzyme
purified protein [9] = substrate: CC(=O)OCc1ccccc1; experiment: purified protein; assay type: biochemical, Cereibacter sphaeroides; conditions: pH 8.3, 30 °C, 400 μM MnCl2, Mn enzyme
purified protein [10] = substrate: CC(=O)Oc1ccc2c(C)cc(=O)oc2c1; experiment: purified protein; assay type: biochemical, Cereibacter sphaeroides; conditions: pH 8.3, 30 °C, 400 μM MnCl2, Mn enzyme
purified protein [11] = substrate: CCCCCCC(=O)Oc1ccc2c(C)cc(=O)oc2c1; experiment: purified protein; assay type: biochemical, Cereibacter sphaeroides; conditions: pH 8.3, 30 °C, 400 μM MnCl2, Mn enzyme
purified protein [12] = substrate: CC(=O)Oc1ccc(OC(C)=O)cc1; experiment: purified protein; assay type: biochemical, Cereibacter sphaeroides; conditions: pH 8.3, 30 °C, 400 μM MnCl2, Mn enzyme
purified protein [13] = substrate: CCC(=O)Oc1ccc2ccccc2c1; experiment: purified protein; assay type: biochemical, Cereibacter sphaeroides; conditions: pH 8.3, 30 °C, 400 μM MnCl2, Mn enzyme
purified protein [14] = substrate: CCCC(=O)Oc1ccc([N+](=O)[O-])cc1; experiment: purified protein; conditions: pH 8.3, 30 °C, 400 μM MnCl2, Mn enzyme
purified protein [15] = substrate: CCCCCCCC(=O)Oc1ccc([N+](=O)[O-])cc1; experiment: purified protein; conditions: pH 8.3, 30 °C, 400 μM MnCl2, Mn enzyme
purified protein [16] = substrate: CC(=O)Oc1ccc([N+](=O)[O-])cc1; experiment: purified protein; conditions: pH 8.3, 30 °C, 400 μM MnCl2, Mn enzyme
purified protein [17] = substrate: CC(=O)Nc1ccc([N+](=O)[O-])cc1; experiment: purified protein; conditions: pH 8.3, 30 °C, 400 μM MnCl2, Mn enzyme
purified protein [18] = substrate: CCCCCC(=O)Oc1ccc([N+](=O)[O-])cc1; experiment: purified protein; conditions: pH 8.3, 30 °C, 400 μM MnCl2, Mn enzyme

Which Km (Rsp3690) does the source give for `COP(=O)(OC)Oc1ccc([N+](=O)[O-])cc1` [compound 26, methyl paraoxon] here?
Its Km is 420 ± 40 µM.

How did the Km (Rsp3690) turn out when `CCOP(=O)(OCC)Oc1ccc([N+](=O)[O-])cc1` [compound 27, paraoxon] was run?
The Km was 110 ± 10 µM.

B1: Rsp3690 (Cereibacter sphaeroides 2.4.1) (protein)
chain: T1 sequence (Q3IVY4 1-354)
Which results are given for B1?
Km (purified protein [1]): 1800 ± 200 µM; kcat (purified protein [1]): 4.3 ± 0.3 s⁻¹; kcat/Km (purified protein [1]): 2400 ± 300 M⁻¹ s⁻¹; Km (purified protein [2]): 400 ± 40 µM; kcat (purified protein [2]): 40 ± 2 s⁻¹; kcat/Km (purified protein [2]): 100000 ± 10000 M⁻¹ s⁻¹; Km (purified protein [3]): 1600 ± 100 µM; kcat (purified protein [3]): 0.1 ± 0.01 s⁻¹; kcat/Km (purified protein [3]): 63 ± 7 M⁻¹ s⁻¹; Km (purified protein [4]): 640 ± 70 µM; kcat (purified protein [4]): 4.8 ± 0.1 s⁻¹; kcat/Km (purified protein [4]): 7500 ± 100 M⁻¹ s⁻¹; Km (purified protein [5]): 160 ± 20 µM; kcat (purified protein [5]): 4.9 ± 0.2 s⁻¹; kcat/Km (purified protein [5]): 31000 ± 4000 M⁻¹ s⁻¹; Km (purified protein [6]): 1900 ± 200 µM; kcat (purified protein [6]): 2.3 ± 0.1 s⁻¹; kcat/Km (purified protein [6]): 1200 ± 100 M⁻¹ s⁻¹; Km (purified protein [7]): 180 ± 20 µM; kcat (purified protein [7]): 9 ± 1 s⁻¹; kcat/Km (purified protein [7]): 50000 ± 6000 M⁻¹ s⁻¹; Km (purified protein [8]): 2800 ± 200 µM; kcat (purified protein [8]): 30 ± 1 s⁻¹; kcat/Km (purified protein [8]): 11000 ± 1000 M⁻¹ s⁻¹; Km (purified protein [9]): 1600 ± 100 µM; kcat (purified protein [9]): 2.5 ± 0.1 s⁻¹; kcat/Km (purified protein [9]): 1600 ± 100 M⁻¹ s⁻¹; Km (purified protein [10]): 240 ± 20 µM; kcat (purified protein [10]): 0.65 ± 0.02 s⁻¹; kcat/Km (purified protein [10]): 2700 ± 200 M⁻¹ s⁻¹; Km (purified protein [11]): 24 ± 3 µM; kcat (purified protein [11]): 0.063 ± 0.001 s⁻¹; kcat/Km (purified protein [11]): 2600 ± 300 M⁻¹ s⁻¹; Km (purified protein [12]): 900 ± 100 µM; kcat (purified protein [12]): 108 ± 4 s⁻¹; kcat/Km (purified protein [12]): 130000 ± 10000 M⁻¹ s⁻¹; Km (purified protein [13]): 560 ± 30 µM; kcat (purified protein [13]): 83 ± 2 s⁻¹; kcat/Km (purified protein [13]): 150000 ± 10000 M⁻¹ s⁻¹; Km (purified protein [14]): 56 ± 3 µM; kcat (purified protein [14]): 50 ± 1 s⁻¹; kcat/Km (purified protein [14]): 880000 ± 40000 M⁻¹ s⁻¹; Km (purified protein [15]): 33 ± 4 µM; kcat (purified protein [15]): 0.5 ± 0.01 s⁻¹; kcat/Km (purified protein [15]): 15000 ± 2000 M⁻¹ s⁻¹; Km (purified protein [16]): 520 ± 40 µM; kcat (purified protein [16]): 120 ± 3 s⁻¹; kcat/Km (purified protein [16]): 230000 ± 20000 M⁻¹ s⁻¹; Km (purified protein [17]): 650 ± 60 µM; kcat (purified protein [17]): 0.36 ± 0.02 s⁻¹; kcat/Km (purified protein [17]): 550 ± 60 M⁻¹ s⁻¹; Km (purified protein [18]): 48 ± 5 µM; kcat (purified protein [18]): 6.5 ± 0.2 s⁻¹; kcat/Km (purified protein [18]): 130000 ± 10000 M⁻¹ s⁻¹

From publication PMC4045322 (Biochemistry, 2014)
